Assay results reported in PMC9124873 (BioImpacts : BI, 2021).

How the values were obtained:
[1] = target: light chain of ranibizumab; test: ELISA
[2] = target: heavy chain of ranibizumab; test: ELISA

B1: recombinant human VEGF-A protein (ligand)
chain: APMAEGGGQNHHEVVKFMDVYQRSYCHPIETLVDIFQEYPDEIEYIFKPSCVPLMRCGGCCNDEGLECVPTEESNITMQIMRIKPHQGQHIGEMSFLQHNKCECRPKKDRARQENPCGPCSERRKHLFVQDPQTCKCSCKNTDSRCKARQLELNERTCRCDKPRR
B1: no binding [1]; no binding [2].
